Measured values published in publication PMC11417362, “Template-independent synthesis and 3′-end labelling of 2′-modified oligonucleotides with terminal deoxynucleotidyl transferases” (Nucleic Acids Research, 2024).

What was measured:
[1] = substrate: Nc1ncnc2c1ncn2[C@@H]1O[C@H](COP(=O)(O)OP(=O)(O)OP(=O)(O)O)[C@@H](O)[C@H]1F; experiment: purified protein, by the assay type
Procedure: (§2) The steady-state kinetic experiments were performed as described previously with minor modifications ([61]). A 2× reaction solution was prepared by mixing 200 nM primer FAM-18G, 0–128 μM 2′-modified NTP and 20 mM Mg(OAc)2 in 2× TdT buffer. A 5 μl aliquot of pre-warmed 2× reaction solution was mixed with 5 μl of bovine TdT, MTdT-evo or murine TdT of varying concentration, and incubated at 37°C for a certain time. The reaction was then quenched by the addition of 10 μl of 2× TBE-urea sample buffer and incubation at 95°C for 10 min. The products were analysed with 20% denaturing PAGE gels containing 8 M urea. All gel bands were quantified using Quantity One analysis software (Bio-Rad). Km and kcat values were calculated by fitting the data to the Michaelis–Menten equation with GraphPad Prism 8 software. To quantify the activities of different TdTs for the incorporation of 2′-modified NTPs, steady-state kinetic experiments were carried out.

[2] = substrate: O=c1ccn([C@@H]2O[C@H](COP(=O)(O)OP(=O)(O)OP(=O)(O)O)[C@@H](O)[C@@H]2F)c(=O)[nH]1; experiment: purified protein, by the assay type
Procedure: as §2

[3] = substrate: CO[C@@H]1[C@H](O)[C@@H](COP(=O)(O)OP(=O)(O)OP(=O)(O)O)O[C@H]1n1ccc(N)nc1=O; experiment: purified protein, by the assay type
Procedure: as §2

[4] = substrate: Nc1ncnc2c1ncn2[C@@H]1O[C@H](COP(=O)(O)OP(=O)(O)OP(=O)(O)O)[C@@H](O)[C@@H]1F; experiment: purified protein, by the assay type
Procedure: as §2

[5] = substrate: Nc1nc2c(ncn2[C@@H]2O[C@H](COP(=O)(O)OP(=O)(O)OP(=O)(O)O)[C@@H](O)[C@@H]2F)c(=O)[nH]1; experiment: steady-state primer extension, denaturing PAGE, Michaelis-Menten fit; assay type: biochemical, Mus musculus; details: 100 nM ssDNA primer FAM-18G, 10 mM Mg(OAc)2, 1x TdT buffer (100 mM KCl, 30 mM Tris-acetate, 0.05% Triton X-100), pH 7.5, 37°C
Source text: (§1) steady-state primer extension, denaturing PAGE, Michaelis-Menten fit on murine TdT

[6] = substrate: Nc1ncnc2c1ncn2[C@H]1C[C@H](O)[C@@H](COP(=O)(O)OP(=O)(O)OP(=O)(O)O)O1; experiment: as above; assay type: biochemical, Mus musculus; details: 100 nM ssDNA primer FAM-18G, 10 mM Mg(OAc)2, 1x TdT buffer (100 mM KCl, 30 mM Tris-acetate, 0.05% Triton X-100), pH 7.5, 37°C
Source text: as §1

[7] = substrate: Nc1ccn([C@@H]2O[C@H](COP(=O)(O)OP(=O)(O)OP(=O)(O)O)[C@@H](O)[C@@H]2F)c(=O)n1; experiment: as above; assay type: biochemical, Mus musculus; details: 100 nM ssDNA primer FAM-18G, 10 mM Mg(OAc)2, 1x TdT buffer (100 mM KCl, 30 mM Tris-acetate, 0.05% Triton X-100), pH 7.5, 37°C
Source text: as §1

[8] = substrate: Cc1cn([C@H]2C[C@H](O)[C@@H](COP(=O)(O)OP(=O)(O)OP(=O)(O)O)O2)c(=O)[nH]c1=O; experiment: as above; assay type: biochemical, Mus musculus; details: 100 nM ssDNA primer FAM-18G, 10 mM Mg(OAc)2, 1x TdT buffer (100 mM KCl, 30 mM Tris-acetate, 0.05% Triton X-100), pH 7.5, 37°C
Source text: as §1

[9] = substrate: O=c1ccn([C@@H]2O[C@H](COP(=O)(O)OP(=O)(O)OP(=O)(O)O)[C@@H](O)[C@H]2F)c(=O)[nH]1; experiment: as above; assay type: biochemical, Mus musculus; details: 100 nM ssDNA primer FAM-18G, 10 mM Mg(OAc)2, 1x TdT buffer (100 mM KCl, 30 mM Tris-acetate, 0.05% Triton X-100), pH 7.5, 37°C
Source text: as §1

[10] = substrate: Nc1nc2c(ncn2[C@@H]2O[C@H](COP(=O)(O)OP(=O)(O)OP(=O)(O)O)[C@@H](O)[C@H]2F)c(=O)[nH]1; experiment: as above; assay type: biochemical, Mus musculus; details: 100 nM ssDNA primer FAM-18G, 10 mM Mg(OAc)2, 1x TdT buffer (100 mM KCl, 30 mM Tris-acetate, 0.05% Triton X-100), pH 7.5, 37°C
Source text: as §1

[11] = substrate: Nc1ccn([C@H]2C[C@H](O)[C@@H](COP(=O)(O)OP(=O)(O)OP(=O)(O)O)O2)c(=O)n1; experiment: as above; assay type: biochemical, Mus musculus; details: 100 nM ssDNA primer FAM-18G, 10 mM Mg(OAc)2, 1x TdT buffer (100 mM KCl, 30 mM Tris-acetate, 0.05% Triton X-100), pH 7.5, 37°C
Source text: as §1

[12] = substrate: CO[C@@H]1[C@H](O)[C@@H](COP(=O)(O)OP(=O)(O)OP(=O)(O)O)O[C@H]1n1cnc2c(=O)[nH]c(N)nc21; experiment: as above; assay type: biochemical, Mus musculus; details: 100 nM ssDNA primer FAM-18G, 10 mM Mg(OAc)2, 1x TdT buffer (100 mM KCl, 30 mM Tris-acetate, 0.05% Triton X-100), pH 7.5, 37°C
Source text: as §1

B1: murine TdT (Mus musculus) (protein)
chain: MDPLQAVHLGPRKKRPRQLGTPVASTPYDIRFRDLVLFILEKKMGTTRRAFLMELARRKGFRVENELSDSVTHIVAENNSGSDVLEWLQLQNIKASSELELLDISWLIECMGAGKPVEMMGRHQLVVNRNSSPSPVPGSQNVPAPAVKKISQYACQRRTTLNNYNQLFTDALDILAENDELRENEGSCLAFMRASSVLKSLPFPITSMKDTEGIPCLGDKVKSIIEGIIEDGESSEAKAVLNDERYKSFKLFTSVFGVGLKTAEKWFRMGFRTLSKIQSDKSLRFTQMQKAGFLYYEDLVSCVNRPEAEAVSMLVKEAVVTFLPDALVTMTGGFRRGKMTGHDVDFLITSPEATEDEEQQLLHKVTDFWKQQGLLLYCDILESTFEKFKQPSRKVDALDHFQKCFLILKLDHGRVHSEKSGQQEGKGWKAIRVDLVMCPYDRRAFALLGWTGSRQFERDLRRYATHERKMMLDNHALYDRTKRVFLEAESEEEIFAHLGLDYIEPWERNA
notes: recombinant, plasmid pET28a-murine TdT, E. coli BL21(DE3)
For B1, the Km [1] was 0.62 ± 0.48 µM, the kcat [1] was 0.023 ± 0.00108 s⁻¹ and the kcat/Km [1] was 37200 M⁻¹ s⁻¹. The Km [2] was 2.36 ± 0.60 µM, the kcat [2] was 0.06 ± 0.00433 s⁻¹ and the kcat/Km [2] was 25500 M⁻¹ s⁻¹. It also gave a Km [3] of 5.1 ± 1.53 µM, a kcat [3] of 0.00112 ± 8.67e-05 s⁻¹ and a kcat/Km [3] of 219 M⁻¹ s⁻¹. For the same protein, the Km [4] was 3.98 ± 0.33 µM, the kcat [4] was 0.204 ± 0.00283 s⁻¹ and the kcat/Km [4] was 51300 M⁻¹ s⁻¹. For the same protein, the Km [5] was 2.75 ± 0.23 µM, the kcat [5] was 0.247 ± 0.007 s⁻¹ and the kcat/Km [5] was 90000 M⁻¹ s⁻¹. It also gave a Km [6] of 2.53 ± 0.30 µM, a kcat [6] of 0.0307 ± 0.00118 s⁻¹ and a kcat/Km [6] of 12100 M⁻¹ s⁻¹. For the same protein, the Km [7] was 1.66 ± 0.71 µM, the kcat [7] was 0.09 ± 0.00667 s⁻¹ and the kcat/Km [7] was 54200 M⁻¹ s⁻¹. It also gave a Km [8] of 1.00 ± 0.33 µM, a kcat [8] of 0.0198 ± 0.00183 s⁻¹ and a kcat/Km [8] of 19800 M⁻¹ s⁻¹. It also gave a Km [9] of 0.95 ± 0.31 µM, a kcat [9] of 0.00617 ± 0.000567 s⁻¹ and a kcat/Km [9] of 6480 M⁻¹ s⁻¹. The Km [10] was 2.59 ± 0.36 µM, the kcat [10] was 0.0892 ± 0.0055 s⁻¹ and the kcat/Km [10] was 34500 M⁻¹ s⁻¹. It also gave a Km [11] of 1.37 ± 0.18 µM, a kcat [11] of 0.058 ± 0.0055 s⁻¹ and a kcat/Km [11] of 42300 M⁻¹ s⁻¹. It also gave a Km [12] of 1.97 ± 0.14 µM, a kcat [12] of 0.00217 ± 8.67e-05 s⁻¹ and a kcat/Km [12] of 1100 M⁻¹ s⁻¹.
